The text below walks through data of article PMC8204342, “Dual arginine recognition of LRRK2 phosphorylated Rab GTPases” (Biophysical Journal, 2021).

B1: His6-RILPL2 129-165 synthetic peptide (minimal Rab-binding domain) (peptide, UniProt Q969X0 129-165, looked up)
chain: NRPRFTLQELRDVLQERNKLKSQLLVVQEELQCYKSG
notes: source: synthetic peptide (GenScript); not shown: His6, N-terminal, kept
B2: Rab8a(Q67L + T72E), phosphomimetic mutant, residues 1-181 (natural protein, human, UniProt P61006 1-181, looked up)
chain: MAKTYDYLFKLLLIGDSGVGKTCVLFRFSEDAFNSTFISTIGIDFKIRTIELDGKRIKLQIWDTAGLERFREITTAYYRGAMGIMLVYDITNEKSFDNIRNWIRNIEEHASADVEKMILGNKCDVNDKRQVSKERGEKLALDYGIKFMETSAKANINVENAFFTLARDIKAKMDKKLEGNS
notes: Rab8a, human, residues 1-181, Q67L + T72E; Tag removed with thrombin; also called Rab8^TE; Rab8TE; source: E. coli, purified (Ni2+-agarose, Superdex 75); not shown: His6, N-terminal, cleaved
B3: pRab8a(Q67L), human Rab8a residues 1-181 phosphorylated at T72, GTP-bound (natural protein, UniProt P61006 1-181, looked up)
chain: B2 chain with E72T
modifications: phosphothreonine at 72 (pT72)
notes: Tag removed with thrombin (pET28a, NdeI/BamHI); also called pRab8(Q67L); phospho-Rab8a; source: E. coli, purified (Ni2+-agarose, Superdex 75), phosphorylated in vitro by MST3 kinase, separated on MonoS; not shown: His6, N-terminal, cleaved
B4: RILPL2 extended Rab-binding domain, residues 117-165, tag cleaved (domain or fragment, human, UniProt Q969X0 117-165, looked up)
chain: GPNKMVVDLTDPNRPRFTLQELRDVLQERNKLKSQLLVVQEELQCYKSG
notes: Parallel coiled-coil dimer in the crystal; source: E. coli BL21(DE3), purified (Ni2+-agarose, TEV cleavage, MonoS); not shown: His6, N-terminal, cleaved; MBP, N-terminal, cleaved

Positions count from the first letter of the chain named. In names and notes the source's numbering stands.

Series [1] deals with the molecule itself. The series is described as follows: crystal structure; Rab8^TE:RL2^129, 1:2 molar ratio protein/peptide, 12 mg/mL; 100 mM HEPES pH 7, 10% PEG 4000, 10% 2-propanol; 1.7 A.
The target of series [2] is B3. Description: ITC; Rab8^TE/pRab8a (400-600 uM) injected into RILPL2 (40-60 uM); 20 mM Tris-HCl, 150 mM NaCl, 5 mM MgCl2, 1 mM DTT, pH 7.5; triplicate. Conditions: both partners purified.
Series [3] concerns the target B2. The series is described as above. The conditions noted are these: both partners purified.
For series [4], the target named is B1. The series is described as above. The conditions noted are these: both partners purified.
The target in series [5] is B4. Described as above. The conditions noted are these: both partners purified.
In series [6] the target is T1, Full-length RILPL2 as used in calorimetry (human, UniProt Q969X0 1-211).
T1 construct: also called RL2-FL
T1 sequence (looked up): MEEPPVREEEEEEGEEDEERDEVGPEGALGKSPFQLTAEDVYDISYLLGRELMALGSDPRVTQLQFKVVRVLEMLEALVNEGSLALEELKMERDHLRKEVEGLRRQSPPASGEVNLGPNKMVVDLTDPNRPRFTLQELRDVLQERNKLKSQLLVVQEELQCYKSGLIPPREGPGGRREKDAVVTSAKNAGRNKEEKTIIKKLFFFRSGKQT
The description is as above. The conditions noted are these: both partners purified.

Series [7] concerns the molecule itself. The series is described as follows: crystal structure; pRab8(Q67L):RL2^117, 1:1 molar ratio, 5 mg/mL; 150 mM DL-malic acid, 20% PEG3350; 1.9 A.

Regarding B1, in series [1], the binding result was “binds”. The figures for the Kd in series [2] and in series [3] were 3300 nM and 3400 nM, respectively.

As for B2, in series [4], the dH is -2.7 kcal/mol and the “stoichiometry N” value was 1.03.

As for B3, the dH was -7.4 kcal/mol in series [5], -5.1 kcal/mol in series [4] and -1.4 kcal/mol in series [6]. Also, the entries for the “stoichiometry N” value in series [5], in series [4] and in series [6] were 1.1, 0.92 and 1.04, respectively. Moreover, the affinity in series [6], expressed as Kd, was 1400 nM.

For the molecule B4, the binding result in series [7] is “binds”. This molecule showed a dissociation constant Kd in series [2] of 540 nM.
